Assay results from US6960440 (TRUSTES OF COLUMBIA UNIVERSITY IN THE CITY OF NEW YORK, dated 2005).

Target: the molecule itself
Assay: SDS-PAGE and Western blot of NADE overexpressed in 293T cells, wild type against Cys-to-Ser mutants

B1: Myc-tagged mouse NADE expressed in 293T cells (pcDNA3.1(-)Myc-HisA/NADE) (other, not shown: small tags and cut ends)
chain: MANVHQENEEMEQPLQNGEEDRPVGGGEGHQPAGNNNNNNHNHNHNHHRRGQARRLAPNFRWAIPNRQMNDGLGGDGDDMEMFMEEMREIRRKLRELQLRNCLRILMGELSNHHDHHDEFCLMP
notes: It runs as 22 kDa and 44 kDa bands; also called Myc-tagged NADE; wild type NADE
binding result: binds
